Source: US20240043507A1

Columns and labels:
Assay in all cases: cell-based or functional assay
[1] = target: spike protein of SARS-CoV-2 strain P.1 (SARS-CoV-2) (UniProt P0DTC2)
[2] = target: spike protein of SARS-CoV-2 strain Victoria (SARS-CoV-2/human/AUS/VIC01/2020) (SARS-CoV-2) (UniProt P0DTC2)
[3] = target: spike protein of SARS-CoV-2 strain B.1.351 (SARS-CoV-2) (UniProt P0DTC2)
[4] = target: spike protein of SARS-CoV-2 strain B.1.1.7 (SARS-CoV-2) (UniProt P0DTC2)
[5] = target: SARS-CoV-2 spike protein on authentic virus, strain SARS-CoV-2/human/AUS/VIC01/2020 (Victoria) (SARS-CoV-2) (UniProt P0DTC2)
[6] = target: SARS-CoV-2 spike protein on authentic virus, strain B.1.1.7 (SARS-CoV-2) (UniProt P0DTC2)

Substance	FRNT50 ratio P.1/Victoria [1]	IC50 (FRNT neutralisation) [2] [µg/mL]	FRNT50 ratio B.1.351/Victoria [3]	IC50 (FRNT neutralisation) [3] [µg/mL]	FRNT50 ratio B.1.1.7/Victoria [4]	IC50 (FRNT neutralisation) [4] [µg/mL]	IC50 (FRNT, live virus neutralisation) [2] [µg/mL]	IC50 (ug/ml), FRNT [5] [µg/mL]	IC50 (ug/ml), FRNT [6] [µg/mL]
LY-CoV555 (antibody)	> 1550	0.006	> 1550	> 10	1.5	0.009	–	–	–
AZD1061 (antibody)	–	0.013	–	0.014	–	0.012	0.013	0.013	0.012
S309 (antibody)	1.9	0.04	2	0.082	1.5	0.078	–	–	–
REGN10987 (antibody)	–	0.032	–	0.007	–	0.028	0.032	0.032	0.028
ADG10 (antibody)	0.5	0.006	1.9	0.011	1.8	0.01	–	–	–
REGN10933 (antibody)	–	0.004	–	3.28	–	0.014	0.004	0.004	0.014
ADG20 (antibody)	2.2	0.004	2.5	0.01	1.4	0.006	–	–	–
LY-CoV16 (antibody)	> 291	0.034	> 291	> 10	1.5	3.23	–	–	–
ADG30 (antibody)	0.3	0.007	4.4	0.029	2.5	0.016	–	–	–
AZD8895 (antibody)	–	0.005	–	0.046	–	0.011	0.005	0.005	0.011
